In paper PMC11189300:

Biological target: KNL1 (construct of the BLI titrations with ZWINT)
Assay: BLI
Conditions: immobilized ligand KNL1, end of association (~500 s), parent read from panel c, read off a plot

Row | Substance | response (analyte ZWINT^M1 15.6 nM, parent: est. 0.040) | response (analyte ZWINT^M1 31.2 nM, parent: est. 0.056) | response (analyte ZWINT^M1 62.5 nM, parent: est. 0.071) | response (analyte ZWINT^M1 125 nM, parent: est. 0.10) | response (analyte ZWINT^M1 250 nM, parent: est. 0.14) | response (analyte ZWINT^M1 500 nM, parent: est. 0.19) | response (analyte ZWINT^M1 1,000 nM, parent: est. 0.22) | response (analyte ZWINT^M2 500 nM, parent: est. 0.19) | response (analyte ZWINT^M2 1000 nM, parent: est. 0.22)
1 | ZWINT (from UniProt O95229) C54A; L67A; I110A; L114A | 0.025 nm | 0.052 nm | 0.071 nm | 0.1 nm | 0.14 nm | 0.2 nm | 0.19 nm |  | 
2 | ZWINT (from UniProt O95229) C54A; S85R; I110A; L114A |  |  |  |  |  |  |  | 0.055 nm | 0.11 nm
